Test results: the DeepSol protein solubility set

Test: soluble on expression in E. coli; label from the status in PepcDB or PDB records

Sequence	soluble on expression in E. coli
MGSDKIHHHHHHMNNSLAFNHDTLPQKVMFGYGKSSAFLKQEVERRGSAKVMVIAGEREMSIAHKVASEIEVAIWHDEVVMHVPIEVAERARAVATDNEIDLLVCVGGGSTIGLAKAIAMTTALPIVAIPTTYAGSEATNVWGLTEAARKTTGVDLKVLPETVIYDSELTMSLPVEMSVASGLNGLAHCIDSLWGPNADPINAVLAAEGIRALNQGLPKIVANPHSIEGRDEALYGAYLAAVSFASAGSGLHHKICHTLGGTFNLPHAQTHATVLPYVLAFNAGDAPEAERRAAAAFGTDTALEGLQRLRLSVNAPKRLSDYGFEASGIAEAVDVTLEKVPANNPRPVTRENLSRLLEAALNGEDPAVLSAVLSN	not soluble
MGSDKIHHHHHHMNPELLQKYIAGNATEAEKQRVTEWIQENPENMREYMAQRKLHDMALWRTEPVAEENSRERKHFSLRGVCMEAAKIAAVLAIVLLGTHYWTGKHQVPEDKTWQSIYVPAGQRAELMLADGTKVWLNSRSTLTFPGSFKGNIRNVKLDGEGYFAVTKNVEQPFIVETNKCNVKVLGTEFNVMAYAADSVWETSLLEGAVEILVPGSNNSGMRLEPNMMASLKGNRLVKGRIKEVDYFLWREGLLCFNDISVRDMIEKLKLYYGVDIVVNNTRILKNRYTGKFRTKDGVEHVLKVLRLNNKFTYTKDDETNVITIN	not soluble
MGSDKIHHHHHHMNPGIEKYEIRFDFDLKDFTYTSHERIHLAGDWKDIKLDAVRLSVDKVTCNGQPMRFETGQDTVTVKGSFHDKDVIDIDFHAKVSDTLMGLYLSRTKEGTMITTQFESNGARMAFPCVDHPAYKAVFAITVVIDKDYDAISNMPPKRIEVSERKIVEFQDTPKMSTYLLYIGVGKFKYATDKYRDIDLILVSLKDIKSKYPLEIARKSIEFYESYFGIPYALPKMHLISVPEFGAGAMENWGAITFREVALMATENSGSIMKQNAAITIAHEIAHQWFGDLVTMKWWNDLWLNESFATFMSYKTVDSFSKQWDVFADFIRSETGGALRSDSLKNTHPIEVDVKDPDEISQIFDEISYGKGASILRMIEDYAGYEEFRKGISKYLNDHRYGNAEGSDLWTAIEDVSGKPVKRVMEYWIKNPGYPVVSVVKSGNKFRLTQEQFFLDGTRGQGKWPIPLTVMTKSGKKAMLMEESAEIEDMVKVNVNSSGFYRVSYDGESFETVMKNYSKLSNLDRWGLISDLYAFLISGRVSVDDYLARIKGFFEDSDHLIVEEIASQLTGLYLLKPDSNRIRETAASYLSRQVVALGDKQKGEDDKISKIRGIVTQDLAMVDDHFASDLARKFSTLAEDPDLALAKSIAAAKAYGISELASAADKYTDDEIRVRIIAAMGWCSPSDLKSVFELIDKGTIRKQDMLYVFSNMPANPKGRDFFFSNIDRIVALMEHAFEGTGYTSRILETAIPYLGLARYEDVKKKAEQIRKPSYNVGINKGLETLEIVRKLYNKL	not soluble
MGSDKIHHHHHHMNPNFTWDDLQFFLAVARTGQLSTAARRLRTSHATVSRRIDRLEFALKVKLFERNPRGYVLTTMGQRFVETAERMERETEQLQLDISDGMTAQRGVVRLSTLEGFGNFFLADRLGEFAERYPNISLELVAIQQIMSLSRKEADIAVALAAPKAGAYHAEVLTPYTLHVYGARSYLAGQPPIRTRSDLGSHRFVGYIDDMIFTPGLDYLGEIQPGLRAHFQSSSILTQLKAVRQGLGLCVLPHFMAKDEPNLEIVLPDEIELKRTYWLICHRDLIAIPRVRAVRDFLVDAAVENRGCFLRETPFALTGPRRVLERQ	not soluble
MGSDKIHHHHHHMNPSPLPYFLGCPSWSENAWRDYLYPADANSNQMLGFYSQVFNAVEGNTTFYARPAPGTIARWAQLMPEHFRFTAKFPRDVSHEGDLRDQLEPAFDFTRLMAPLGRRVSPYWLQLPAQFGPARLGELCHFLDQIAVPVAVEVRNQAFFAKGEEERLLNRLLHERGVERICLDPRALFSCTSRDPAVLHAQSKKPKVPPRPAAFSQHPQVRFIGHPELEANHTFLSPWVEKVAAWIEEGRNPYIFLHTSDNRLAAALAQRFHQRLMARLPGLAPLPELPRAPEVEQLGLL	not soluble
MGSDKIHHHHHHMNRDYVCSEMFCMGTIISQKIYGEDKKEVLFKVENEMRRLEKAMNFYSSSSEISKLNKFGFENEIKLSKDVYHVIKNAKNFSKKTLGAFDISLAPIIKLWGIFCENERVPSVKEIEKNLSLVNYKNLVLNDYKRTVKFLVEDMKVDLGGIAKGYAADRAIDIYKGGGVKSASINLGGNVSVIGEKPDGKSWCIGVQNPLKKRGEIIGAISVKNKSVVTSGSYVRYFEKDNIKYHHIIDPKTGYPAKEELLSVTVIFENSMLCDAVSTAAFIAGADGGIELVKRFRDVEAIFITKDRKVIITKGIAKSFSLVEESGFQYL	not soluble
MGSDKIHHHHHHMNRESMRPQFAPARSPSDVAMISRHIEAGVHRLPRAPHHRVMVHASAATRSYCNQVGRYFVRRAGDIDLVPAGEEGGFEAETAFDTVEIVLPPALMERVAAELGGRALVSRLDTRHLLRDQRIEHLARALQNDLDAGAPSGSLFADSIGAALAVRLLGVDDDIDIERTNRLSDTQLKRVLEHIEAALHEPLSIDRLARVAGASSSHLRTWFKVATGVTLHRYVLRRRVERARLLLERGDLSTSEVAELTGFAHQSHLAHWMRREIGQTPRDVRRARPPK	not soluble
MGSDKIHHHHHHMNSSQKRVLHVLSGMNRGGAETMVMNLYRKMDKSKVQFDFLTYRNDPCAYDEEILSLGGRLFYVPSIGQSNPLTFVRNVRNAIKENGPFSAVHAHTDFQTGFIALAARLAGVPVRVCHSHNTSWKTGFNWKDRLQLLVFRRLILANATALCACGEDAGRFLFGQSNMERERVHLLPNGIDLELFAPNGQAADEEKAARGIAADRLIIGHVARFHEVKNHAFLLKLAAHLKERGIRFQLVLAGDGPLCGEIEEEARQQNLLSDVLFLGTEERIHELMRTFDVFVMPSLYEGLPVVLVEAQASGLPCIISDSITEKVDAGLGLVTRLSLSEPISVWAETIARAAAAGRPKREFIKETLAQLGYDAQQNVGALLNVYNISTEKDHNR	not soluble
MGSDKIHHHHHHMNSSQVLDVKRVLAVLEEQVFQSTGRYLTEVEKVLIKGVWDSKDYKEMASDSGYNAYYLQQKVAPPLWSMLSVIIGDGVKVTKISLKSILLKLAKSDYRKEEASRLDNDSFVGNIRIHGELPKIKSFYGRKDEINYFKKQITLFKERCIVFTGVGGIGKTLLASRLVEEITFDSLSSIYECIIWKTINHSLSIDELVIDLNKIFQVDIEASENSFIDSISLLSKQLHLHRCLLVIDGFEKLLLADDFGKRLQYEKFLLKLTEGKHESCIIITSQLPLKEFASVTTKLPIRSFKLEGLDVNAGMQILQEKGLTGQECKRLIENYSGNPSSLEALADRINRFFEGSVKTFFRYQTTMIDPQLETMLHQQFGQIGLLSNLQRQIMIYLAEEMSENSTPIQFSKLIDNLKERVDFKLSVFELITAIEVLEQRSLIEIAGKSNKREASYSLQVSIKKYILVDPLGLVHKIPDTIQTREVTLWATA	not soluble
MGSDKIHHHHHHMNTIEDNLNQRISARIRIERESRGWSLNDLAERAGASRAMIHKIERGESSPTASMLGRLSGAFGISMSTLIARAEMQEGKLLRFASQPVWRDPQSHYLRRHVSPRSDLPIDLVQIELPPGSDVPMPAASYALARQLIWLQQGELVFVEGNTRHEMQAGDCLELGPPNDCRFINESAETCVYLVVRLNQSPSGS	not soluble
MGSDKIHHHHHHMNTLTLEYIKSILPPRPDNSHKMTFGHVLNIAGSLHYRGAAYLSSLSALRVGAGYVTLASSPSVCDSVSALTPNIVTFALRTLSPLSVHSLQRTANLHLKDAQIVDVQTLSPQAVLQLRDKLTQASAISIGSGLSIGQSTDQCIDITAINTELTVDVDVTLCTEMSAEISTDLNSDLNSDLNSDLRSELPICNVIKDNQPHSNELIPPQGNHGFFYALLNEIQTCTKPVIFDADALNFISHLLNPPVPFGTTTVTLPNKSIITPHPKELARLLNMDVATLQTQRMHFARLAAKQLNTIVVLKGKNTVITDGNDVFINPTGNSALAKAGTGDVLTGMISGFCAQGVSPINAACLGVYLHGLAGNIAAEDLSQYGMLASDLLSYIPKAILKVLAI	not soluble
MGSDKIHHHHHHMNTPAPRKRREMKIKTATVTGVRQISPDLIRFSFDCPEIVGADLGFTDHYIKILFVPAGADYSWPFDMAEIAETQPRELQPVRRTYTFRTVDTVAGTFDIDFVAHGTDGLAGPWAQQAQVGDVIAFGGPGGAWKPETTYEHYVLAGDEAAAPAIFAALEHLPAGTTAKAFIEISSNEARFNAPASDNIEVVWVPRDGATHGTLLIDALRQDGYPTKKTSWFIHGVAEMVKETRKFLFVEGNVDKADASISGYWRLGMTEDQWQASKREFNEQNEAEELALSKA	not soluble
